Where a chain is given by its changes, count along the chain named. Names may count otherwise.
Key:
[1] = biological target: the molecule itself; experiment: cell-based or functional assay
SEC [2] = biological target: the molecule itself; experiment: SEC
SEC [3] = biological target: the molecule itself; experiment: SEC; remark: listed apart in the source

B1: S167D-catalase (phospho-mimic mutant of human catalase) (enzyme, UniProt P04040 1-527, looked up)
chain: MADSRDPASDQMQHWKEQRAAQKADVLTTGAGNPVGDKLNVITVGPRGPLLVQDVVFTDEMAHFDRERIPERVVHAKGAGAFGYFEVTHDITKYSKAKVFEHIGKKTPIAVRFSTVAGESGSADTVRDPRGFAVKFYTEDGNWDLVGNNTPIFFIRDPILFPSFIHDQKRNPQTHLKDPDMVWDFWSLRPESLHQVSFLFSDRGIPDGHRHMNGYGSHTFKLVNANGEAVYCKFHYKTDQGIKNLSVEDAARLSQEDPDYGIRDLFNAIATGKYPSWTFYIQVMTFNQAETFPFNPFDLTKVWPHKDYPLIPVGKLVLNRNPVNYFAEVEQIAFDPSNMPPGIEASPDKMLQGRLFAYPDTHRHRLGPNYLHIPVNCPYRARVANYQRDGPMCMQDNQGGAPNYYPNSFGAPEQQPSALEHSIQYSGEVRRFNTANDDNVTQVRAFYVNVLNEEQRKRLCENIAGHLKDAQIFIQKKAVKNFTEVHPDYGSHIQALLDKYNAEKPKNAIHTFVQSGSHLAAREKANL
Q: What does the source list for B1?
A: rate of H2O2 decomposition by the purified protein, against wildtype catalase [1]: 2 fold; stoichiometry N (SEC [2]): 4; Dimer (%) (SEC [3]): 9.2%; Tetramer (%) (SEC [3]): 44.4%

B2: recombinant human wildtype catalase incubated with PKCδ (phosphorylated at S167) (enzyme, UniProt P04040 1-527, looked up)
chain: B1 chain with D167S
modifications: phosphoserine at 167
Q: For B2, which “stoichiometry N” value (SEC [2]) is on record?
A: 4

Q: And the “Dimer (%)” value (SEC [3])?
A: 6.23%

Q: And the “Tetramer (%)” value (SEC [3])?
A: 51.8%

B3: recombinant human wildtype catalase (enzyme, UniProt P04040 1-527, looked up)
chain: B1 chain with D167S
Q: How did the “stoichiometry N” value (SEC [2]) turn out when B3 was run?
A: 2

Q: And the “Dimer (%)” value (SEC [3])?
A: 53%

Q: And the “Tetramer (%)” value (SEC [3])?
A: 4.78%
